Series [1] concerns the target Full-length mouse NINJ1(K45Q) (mouse, UniProt O70131, K45Q). Put plainly: SPR.
The series “cross-linking” concerns the molecule itself. Put plainly: cross-linking.
The series “cryo-EM structure” deals with the molecule itself. The experiment in a line: cryo-EM structure.

B1: Nb538 (His-tagged, purified) (VHH)
VHH: EVQLVESGGGLVQPGGSLRLSCAASGFNVYSSSYYYVGWVRRAPGKGEELVARISPSYGYTYYADSVKGRFTISADTSKNTAYLQMNSLRAEDTAVYYCEVYIFGQYFESGQGTLVTVSS
Broadly, the Kd is the equilibrium constant for the complex coming apart. Lower therefore signals a tighter complex. Molecule B1 gave a Kd in series [1] of 24 nM.

B2: Endogenous NINJ1 of mouse bone marrow-derived macrophages (natural protein)
chain: MESGTEEYELNGDLRPGSPGSPDALPPRWGLRNRPINVNHYANKKSAAESMLDIALLMANASQLKAVVEQGNDFAFFVPLVVLISISLVLQIGVGVLLIFLVKYDLNNPAKHAKLDFLNNLATGLVFIIVVVNIFITAFGVQKPVMDVAPRQ
The term stoichiometry N denotes a count of units in the complex or per binding partner. Consider B2, for which, in the series “cross-linking”, the “stoichiometry N” value came to 2 subunits.

B3: Full-length mouse NINJ1(K45Q) (natural protein)
chain: MESGTEEYELNGDLRPGSPGSPDALPPRWGLRNRPINVNHYANKQSAAESMLDIALLMANASQLKAVVEQGNDFAFFVPLVVLISISLVLQIGVGVLLIFLVKYDLNNPAKHAKLDFLNNLATGLVFIIVVVNIFITAFGVQKPVMDVAPRQ
Take B3: the “stoichiometry N” value in “cryo-EM structure” was 4 subunits.

Values taken from paper PMC11711097 (Nature, 2024).
